Measurements reported in paper PMC10333351 (Nature Communications, 2023).

Columns and labels:
[1] = molecular target: the molecule itself; assay: crystal structure; FtsZtr mixed with 1.2x molar excess of Mb and PC190723; hanging drop, 293 K, 0.2 M sodium formate, 0.1 M Bis-Tris propane pH 6.5, 20% PEG3350; space groups P212121 and P21
[2] = molecular target: the molecule itself; assay: cryo-EM structure; KpFtsZ-Mb double-helical tube: 4.0 mg/ml KpFtsZ, 20 mM HEPES pH 7.5, 25 mM NaCl, 100 mM KCl, 5 mM MgCl2, 1 mM GMPPNP, 0.12 mM PC190723, 1.2x molar excess of Mb
[3] = molecular target: the molecule itself; assay: negative staining EM; 1.0 mg/ml purified KpFtsZ alone or with 1 mM GTP, GMPCPP, GDP or GMPPNP; uranyl acetate stain
[4] = molecular target: T1, FtsZ from Escherichia coli, full length, purified (tag state not stated) (Escherichia coli, UniProt P0A9A6 1-383); assay: SPR
T1 chain: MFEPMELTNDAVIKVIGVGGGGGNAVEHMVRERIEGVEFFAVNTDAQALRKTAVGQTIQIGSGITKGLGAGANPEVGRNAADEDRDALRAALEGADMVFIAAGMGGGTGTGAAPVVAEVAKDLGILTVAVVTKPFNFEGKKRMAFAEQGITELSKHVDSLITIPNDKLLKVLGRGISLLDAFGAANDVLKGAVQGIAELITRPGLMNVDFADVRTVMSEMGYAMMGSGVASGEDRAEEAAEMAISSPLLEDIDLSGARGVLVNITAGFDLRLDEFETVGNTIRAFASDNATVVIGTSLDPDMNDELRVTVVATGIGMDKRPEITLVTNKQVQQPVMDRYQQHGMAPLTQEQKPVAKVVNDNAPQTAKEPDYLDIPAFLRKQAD

[5] = molecular target: T2, FtsZ from Klebsiella pneumoniae, full length, purified (tag state not stated) (Klebsiella pneumoniae, UniProt W9BCK7 1-383); assay: SPR
T2 chain: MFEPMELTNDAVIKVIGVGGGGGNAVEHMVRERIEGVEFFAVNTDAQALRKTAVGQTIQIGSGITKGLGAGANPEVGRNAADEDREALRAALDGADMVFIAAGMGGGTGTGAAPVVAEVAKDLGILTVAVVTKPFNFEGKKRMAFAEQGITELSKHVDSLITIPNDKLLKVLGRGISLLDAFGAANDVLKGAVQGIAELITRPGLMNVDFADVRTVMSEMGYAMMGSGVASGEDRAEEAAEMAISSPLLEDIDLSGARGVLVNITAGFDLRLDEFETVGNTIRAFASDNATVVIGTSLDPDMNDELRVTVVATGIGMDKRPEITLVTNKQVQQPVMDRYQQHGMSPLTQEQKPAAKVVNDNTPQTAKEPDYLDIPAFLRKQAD

B1: truncated KpFtsZ (residues 11-316), tag removed (domain or fragment, Klebsiella pneumoniae, UniProt W9BCK7 11-316, looked up)
chain: AVIKVIGVGGGGGNAVEHMVRERIEGVEFFAVNTDAQALRKTAVGQTIQIGSGITKGLGAGANPEVGRNAADEDREALRAALDGADMVFIAAGMGGGTGTGAAPVVAEVAKDLGILTVAVVTKPFNFEGKKRMAFAEQGITELSKHVDSLITIPNDKLLKVLGRGISLLDAFGAANDVLKGAVQGIAELITRPGLMNVDFADVRTVMSEMGYAMMGSGVASGEDRAEEAAEMAISSPLLEDIDLSGARGVLVNITAGFDLRLDEFETVGNTIRAFASDNATVVIGTSLDPDMNDELRVTVVATGIG
notes: FtsZ, Klebsiella pneumoniae, residues 11-316; also called KpFtsZtr; source: E. coli, purified (HisTrap, HiTrap Q, Superdex200), tag removed with TEV protease; not shown: His6, N-terminal, cleaved
binding result [1]: binds

B2: truncated EcFtsZ (residues 11-316), tag removed (domain or fragment, Escherichia coli, UniProt P0A9A6 11-316, looked up)
chain: AVIKVIGVGGGGGNAVEHMVRERIEGVEFFAVNTDAQALRKTAVGQTIQIGSGITKGLGAGANPEVGRNAADEDRDALRAALEGADMVFIAAGMGGGTGTGAAPVVAEVAKDLGILTVAVVTKPFNFEGKKRMAFAEQGITELSKHVDSLITIPNDKLLKVLGRGISLLDAFGAANDVLKGAVQGIAELITRPGLMNVDFADVRTVMSEMGYAMMGSGVASGEDRAEEAAEMAISSPLLEDIDLSGARGVLVNITAGFDLRLDEFETVGNTIRAFASDNATVVIGTSLDPDMNDELRVTVVATGIG
notes: FtsZ, Escherichia coli, residues 11-316; also called EcFtsZtr; source: E. coli, purified (HisTrap, HiTrap Q, Superdex200), tag removed with TEV protease; not shown: His6, N-terminal, cleaved
binding result [1]: binds

B3: FtsZ from Klebsiella pneumoniae, full length, tag removed (natural protein, UniProt W9BCK7 1-383, looked up)
chain: MFEPMELTNDAVIKVIGVGGGGGNAVEHMVRERIEGVEFFAVNTDAQALRKTAVGQTIQIGSGITKGLGAGANPEVGRNAADEDREALRAALDGADMVFIAAGMGGGTGTGAAPVVAEVAKDLGILTVAVVTKPFNFEGKKRMAFAEQGITELSKHVDSLITIPNDKLLKVLGRGISLLDAFGAANDVLKGAVQGIAELITRPGLMNVDFADVRTVMSEMGYAMMGSGVASGEDRAEEAAEMAISSPLLEDIDLSGARGVLVNITAGFDLRLDEFETVGNTIRAFASDNATVVIGTSLDPDMNDELRVTVVATGIGMDKRPEITLVTNKQVQQPVMDRYQQHGMSPLTQEQKPAAKVVNDNTPQTAKEPDYLDIPAFLRKQAD
notes: Used for cryoEM; Polymer (protofilament or double-helical tube); also called KpFtsZ; source: E. coli, purified (HisTrap, HiTrap Q, Superdex200), tag removed with TEV protease; not shown: His6, N-terminal, cleaved
binding result [2]: binds

B4: FtsZ from Klebsiella pneumoniae, full length, purified (tag state not stated) (natural protein, UniProt W9BCK7 1-383, looked up)
chain: MFEPMELTNDAVIKVIGVGGGGGNAVEHMVRERIEGVEFFAVNTDAQALRKTAVGQTIQIGSGITKGLGAGANPEVGRNAADEDREALRAALDGADMVFIAAGMGGGTGTGAAPVVAEVAKDLGILTVAVVTKPFNFEGKKRMAFAEQGITELSKHVDSLITIPNDKLLKVLGRGISLLDAFGAANDVLKGAVQGIAELITRPGLMNVDFADVRTVMSEMGYAMMGSGVASGEDRAEEAAEMAISSPLLEDIDLSGARGVLVNITAGFDLRLDEFETVGNTIRAFASDNATVVIGTSLDPDMNDELRVTVVATGIGMDKRPEITLVTNKQVQQPVMDRYQQHGMSPLTQEQKPAAKVVNDNTPQTAKEPDYLDIPAFLRKQAD
notes: Used for SPR (analyte) and negative staining EM; also called KpFtsZ; source: E. coli, purified (HisTrap, HiTrap Q, Superdex200)
binding result [3]: binds

B5: Mb(Ec/KpFtsZ_S1), His10-tagged (designed binder)
chain: MKHHHHHHHHHHSSDYKDDDDKGENLYFQGSVSSVPTKLEVVAATPTSLLISWDAPAVTVSYYRITYGETGGNSPVQEFTVPGSKSTATISGLSPGVDYTITVYARSAYHRRSPISINYRT
koff [4]: 0.39 s⁻¹ | koff [5]: 0.67 s⁻¹
